Experimental data taken from patent publication US20240016847A1 (TRUSTEES OF COLUMBIA UNIVERSITY IN THE CITY OF NEW YORK, published 2024).

Columns and labels:
[1] = target: sfGFP linked to the PlGF123-144 peptide sequence with a flexible glycine-serine linker at the C-terminus …; test: cell-based or functional assay
[2] = target: sfGFP with a cysteine substitution at position D117 (D117C synthetic antigen) (Aequorea victoria (Water jellyfish) …, UniProt P42212 2-238 = GFP); test: cell-based or functional assay

B1: GFP specific ProCAR construct (GFP28z): sfGFP-binding nanobody, IgG4 hinge, CD28 transmembrane and intracellular domains, CD3zeta signaling domain (receptor)
chain: QVQLQESGGGSVQAGGSLKLSCAASGGAYRNACMGWFRQAPGKEREGVAIINSVDTTYYADPVKGRFTISRDNAKSTVYLLMNSLKPEDTAIYYCAQVARVVCPGDKLGASGYNYWGQGTQVTVSSGSESKYGPPCPCPAFWVLVVVGGVLACYSLLVTVAFIIFWVRSKRSRLLHSDYMNMTPRRPGPTRKHYQPYAPPRDFAAYRSLRVKFSRSADAPAYQQGQNQLYNELNLGRREEYDVLDKRRGRDPEMGGKPRRKNPQEGLYNELQKDKMAEAYSEIGMKGERRRGKGHDGLYQGLSTATKDTYDALHMQALPPR
[1]
  SA-driven fold expansion of GFP28z: 8 fold
  viability of GFP28z T cells after 24 hr with 500 ng/mL PlGF-SA, relative to untreated controls: ~72 % of untreated controls
[2]
  SA-driven fold expansion of GFP28z: 8 fold
